Data reported in patent publication US7667100B2, “Nucleic acid compositions conferring herbicide resistance” (Dow AgroSciences LLC, priority 2002, dated 2010).

B1: 130994: Poppy cDNA clone; auxin tolerance hit sequence (nucleic acid)
DNA: GAATTCAATCAAATGGCTACTGCTAGAGTTTTAGCTGCTAGTATGTTGCATGAATGCAACAACACTCACAGTGCTTCATTTCTTTTGAGACAATCTTCTTTCATCTTACCTATTAAACATCAAAGTATTAATTTCAGTAGAAGAGCATCTTCTAGGAGAGCTTTTACTTGCAAATCTCTTTACAAACCTGAAATTCAAATCAAACAAGAAGGTGAACCTCAAACCCTAGATTACAGAGTCTTCTTTCATGATAAATCTGGCAAAAAGCTTTCACCTTGGCATGATGTACCATTGCAATTGGGTGATGGAGTGTTCAATTTTATCGTGGAAATACCAAAAGAGACAAGTGCAAAGATGGAAGTTGCAACTGATGAGCCATATACTCCCATTAAACAGGACACCAAGAAGGGAAAACTTAGATTCTACCCCTACAACATCAATTGGAACTATGGATTGCTCCCACAGACATGGGAAGACCCAACAGTAGCTAATTCTGAAGTTGAAGGGGCATTCGGAGATAATGATCCAGTTGATGTTGTTGAAATTGGGGAGAGGCAAGGAAAAATTGGCGAGATTCTTAAAGTCAAGCCTTTAGGTGCTTTGGCTATGATTGACGAAGGAGAACTCGACTGGAAAATTGTTGCGATTTCGTTGGATGACCCAAAAGCTTCACTCGTCAATGATGTTGGTGATGTTGAGAAACATTTCCCGGGCACTCTCACTGCTATAAGAGATTGGTTCAGAGACTACAAGATCCCAGATGGAAAGCCTGCCAATAAGTTTGGACTTGGGAACAAAGCAGCCAACAAGGATTATGCTCTGAAGGTAATAACTGAAACCAACGAAGCTTGGGCTAAACTTGTCAAGAGAACTGTTCCTGCTGGGGAGCTCTCCCTTCTGTAAATTTTGAATTTTTAAAAGTTGAAGATAAGAGGCACTTTGGCCCGCTCCTATCCCCCTCCTCTCTCTATTGTTTTCTTTCATGCTGGATTCCAAACAAACTTCCTCCAATTTTTTGGACGAAGTATTGATAATTTCTAATCATTGAGCTCCATTTTTCAAAAAAAAAAAA
modifications: Poppy
B2: 130294: Poppy cDNA clone; auxin tolerance hit sequence (nucleic acid)
DNA: TTAATTAAGTCGACGAATTCACATCTAAAGTCAACAACAAGAGCTTCTCTCTTCTCCTCGTCTCTGTTCTCCTCTCTTTTGCAATCCTCTCTCAATCTGCTGATGATTGTGTATACACAGTATACACAAGAACAGGATCAATCATCAAAGGAGGAACGGATTCAAAAATCTCACTAAGATTATACAGCAAATACGGTAAGTACATCGAGATCCCAAATCTTGAATCATGGGGTGGATTAATGGGTCCTGGTTACGATTATTTCGAAAGAGGTAATCTTGATATCTTCAGCGGAAGAGGTTATTGTCTGGGTTCACCGGTTTGTGCCATGAATCTGACTTCCGATGGTACTGGTTCCGGTCACGGATGGTATGTGAATTATGTTGAAGTTACTACTACCGGTGCACATATTAATTGTGGTCAACAGAATTTTGAAGTGGAAGATTGGCTTGCTCTTGATAGATCTCCTTATAGTCTTACCGCTATCAAGAATAATTGTAATCAGAAATTATCTGATCATGATTCTCATTCTGCTGATCAGTCTATGTAAAATTTGATCTCTTGTTTGATTCGGTGGTGGTCTAGTATGAGTGATCGGACGGTCGTCATTGTGTGTTGTAATGTTGAAATTATTTTCTTGAATAAAATGATTGAGTGAGTAGTGTTTGATTTTGCTTGGCCATCTTAGACATGATGGTGAGACTGTTTCTCGATTCGATGCAATTTTTTGGTTTTCTTGGTTGCAATCAATTCACGTTTGGTGAAAAAAAAAAAAAAAAAAAAAAAAAAAAAAAAAAAAAAAAAAAA
modifications: Poppy

Key:
Nicotiana benthamiana [1] = experiment: Evaluation of auxin tolerance in greenhouse plants inoculated with clone transcript and sprayed with herbicide; format: in vivo; conditions: greenhouse; 30% or more of test population tolerant by 14 dat
Experimental: All primary hit sequences were evaluated for tolerance in larger plants, maintained under greenhouse conditions as described below.
Plant Growth and Maintenance. Nb seeds were sown in 6.5 cm pots filled with Redi-earth medium (The Scotts Company, Marysville, Ohio) pre-wetted by injection of Hoagland's fertilizer solution [all from the Scotts Company: 147 kg Peters Excel 15-15-15 Cal-Mag, 68 kg Peters Excel 15-0-0 Cal-Lite (15% Ca), and 45 kg Peters Excel 10-0-0 MagNitrate (10% Mg) in hot tap water to 596 L total volume] into irrigation water at a ratio of 200:1, using an injection system (H. E. Anderson, Muskogee Okla,). Seededpots were placed in the greenhouse for 1 day, transferred to a 27° C. germination chamber (Carolina Greenhouses, Kinston, N.C.) for 2 days, and then returned to the greenhouse. Shade curtains (33% transmittance) were used in the greenhouse to reduce solar intensity. To ensure 16 hour day length and supplement solar radiation on overcast days, artificial lighting consisting of a 1:1 mixture of metal halide and high pressure Sylvania sodium lamps was used, delivering approximately 220 μmol/m^2/s. Evaporative cooling and steam heat were used to maintain a daytime set point of 27° C. and a nighttime temperature of 22° C. At approximately 7 days post sowing (dps), seedlings were thinned to one seedling per pot and at 17 to 21 dps, the pots were spaced farther apart to accommodate plant growth. Plants were watered with Hoagland's solution as required. Following inoculation, waste irrigation water was collected and treated with 0.5% sodium hypochlorite for 10 minutes to neutralize any viral contamination before discharging into the municipal sewer.
Plant Inoculation. For each clone, 50 test plants as well as 10 GFP and bar (Thompson et al., EMBO J. 6:2519 [19870]) negative control plants were inoculated as follows: 2.0 mL of inoculum per clone were prepared by combining equal volumes of NCAP transcript and FES buffer [0.1 M glycine, 0.06 M K2HPO4, 1% sodium pyrophosphate, 1% diatomaceous earth (Sigma Chemical Company, St. Louis, Mo.), and either 1% silicon carbide (Aldrich Chemical Company, Milwaukee, Wis.), or 1% Bentonite (Sigma Chemical Company, St. Louis, Mo.)]. The inoculum was applied to each plant at 17 days post sowing by pipetting onto the upper surface of leaves 3 and 4 (˜20 μL per leaf). The inoculum was then spread across each leaf surface using a 3″ cotton tipped applicator (Calapro Swab, Fisher Scientific, Pittsburgh, Pa.) and a gloved finger to support the leaf. Following inoculation the plants were misted with deionized water.
Infection Scoring. At 8 days post inoculation (dpi), the plants were visually examined and a numerical score was assigned to each plant to indicate the extent of viral infection symptoms: 0=no infection, 1=possible infection, 2=infection symptoms limited to leaves <50-75% fully expanded, 3=typical systemic infection, 4=atypically severe infection, often accompanied by moderate to severe wilting and/or necrosis. Plants receiving an infection rating of 0, 1, or 4 were discarded.
Herbicide spraying. At 9 dpi, the well infected plants (infection score of 3, sometimes 2) were divided into 3 treatment groups. Group 1, to be sprayed with solvent only, contained 4 plants per test clone (2 plants per negative control) and Groups 2 and 3, to be treated with 13 or 40 g ae/ha, respectively, each consisted of 12 test plants per clone and 2 plants per negative control. […]

Nicotiana benthamiana [2] = experiment: Cross-resistance testing against six auxin compounds (greenhouse); format: in vivo; conditions: for tolerance to picloram (Compound #5): 10 g ae/ha and 1/2x; for tolerance to positive control 4-amino-3,6-dichloropyridine-2-carboxylic acid (Compound #6): 10 g ae/ha and 1/2x (5 g ae/ha); for tolerance to dicamba (Compound #3): 64 g ae/ha and 1/2x; for tolerance to quinclorac (Compound #1): 200 g ae/ha and 1/2x; for extent of cross-resistance to the six auxin compounds: two trials, two doses per auxin, thresholds 25% or 35% injury or less
Description: Six compounds, representing five classes of auxin chemistry, were selected for testing the extent of auxinic tolerance of five hit sequences (129965 (SEQ ID NO:10), 130213 (SEQ ID NO: 14), 130294 (SEQ ID NO:360), 130994 (SEQ ID NO:361), and 129870 (SEQ ID NO:359)). The compounds included the following: • 1) quinclorac (BASF Corp., Research Triangle, N.C.) • 2) (2,4-dichlorophenoxy) acetic acid (Dow AgroSciences, Indianapolis, Ind.) • 3) dicamba (Monsanto, St. Louis, Mo.) • 4) benazolin (AgrEvo USA Company, Wilmington, Del.) • 5) picloram (Dow AgroSciences, Indianapolis, Ind.) • 6) 4-amino-3,6-dichloropyridine-2-carboxylic acid (Dow AgroSciences, Indianapolis, Ind.) Compound #6 served as a positive control, as these five sequences were identified for their herbicide tolerant function using this auxin (see Example 9). Compound #1 represents the quinoline carboxylic acid chemical family, #2 is in the phenoxy carboxylic acid class, #3 is benzoic acid chemistry, #4 is unique to any currently defined class, and #5 is in the same family as the positive control, pyridine carboxylic acids.
The protocol was essentially the same as that described in Example 9 for greenhouse evaluations. However, an individual experiment consisted of 200 test plants plus 35 GFP and 35 bar negative control plants inoculated per clone. […] Two doses per auxin were tested, with as many as 12 well-infected test plants and 2 of each of the negative controls per dose.
The six auxin solutions were prepared by dissolving solid compound in General Purpose Solvent (GPS: 97%DMSO: 3% acetone) to achieve the following spray rates (g ae/ha) when using the spray applicator and parameters outlined in Example 9: Compound #1) 200; 2) 42; 3) 64; 4) 200; 5) 10; 6) 10. From each of these solutions, a portion was diluted with an equal volume of GPS, resulting in 1× (“high dose”) and ½× (“low dose”) concentrations for spraying. Before spray application, each auxin solution was mixed with an equal volume of diluent containing surfactants for effective penetration. The diluent was prepared as follows: 420 mL GPS, 460 mL DI water, 120 mL isopropyl alcohol, 10.167 mL Agri-Dex (Helena Chemical Co., Memphis, Tenn.), and 0.167 mL Triton X-155 (Sigma Chemical Co., St. Louis, Mo.). In addition to the 200 and 100 g ae/ha rates tested for Compound #4 (benazolin), a concentration of 250 g ae/ha was also formulated as described above and tested.
Plants were sprayed and evaluated as described in Example 9. FIG. 7 summarizes the sequences tested and the highest dose of the compounds against which tolerance was observed. […] Results are reported in FIG. 7 for each of the trials with each construct.
The positive control (Compound #6) was formulated differently in this set of evaluations from that described in Example 9, for consistency in the solvent/surfactant background from which to compare the activity of the individual sequences against each auxin. Thus, the spray rate used for evaluation was lower than previous experiments, 5 vs. 13 g ae/ha. The need to lower the dose with this formulation to prevent total chlorosis and/or necrosis was likely due to the addition of DMSO, Agri-Dex, and Triton X-155 which were not used in Example 9.

| Molecule | reproducibility of auxin tolerance from Trial #1 to Trial #2 (Nicotiana benthamiana [1]) | tolerance to picloram (Compound #5) (Nicotiana benthamiana [2]) | tolerance to positive control 4-amino-3,6-dichloropyridine-2-carboxylic acid (Compound #6) (Nicotiana benthamiana [2]) | tolerance to dicamba (Compound #3) (Nicotiana benthamiana [2]) | tolerance to quinclorac (Compound #1) (Nicotiana benthamiana [2]) | extent of cross-resistance to the six auxin compounds (Nicotiana benthamiana [2]) |
| --- | --- | --- | --- | --- | --- | --- |
| B1 | reproducible auxin tolerance | demonstrated tolerance to each of the three compounds using the 35% injury threshold | tolerance consistently occurred at the lower threshold (25% injury or less) | demonstrated tolerance to each of the three compounds using the 35% injury threshold | demonstrated tolerance to each of the three compounds using the 35% injury threshold | tolerance was observed against four compounds |
| B2 | reproducible auxin tolerance | clear resistance to dicamba and picloram when the 35% rating was considered | tolerance consistently occurred at the lower threshold (25% injury or less) | clear resistance to dicamba and picloram when the 35% rating was considered | consistently tolerant to quinclorac exposure at the 25% injury threshold | tolerance was observed against four compounds |
